# Reference: the nanobody polyreactivity screen of Harvey et al. (2022)
# Assay: yeast display, Sf9 membrane polyspecificity reagent, FACS + sequencing; frameworks hold sequencing errors
# In short: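 Polyreactivity labels are assigned by the sorting gate from which each nanobody was recovered. The gates were low and high (top ~1%), set on anti-HA fluorescence for expression and streptavidin fluorescence for reagent binding. Before sorting, galactose-induced (36–48 hours) yeast display cells were stained for 1 hour at 4 °C with 10% biotinylated, detergent-solubilized Sf9 membrane reagent.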
sequence,measurement,value
QVQLVESGGGLVQAGGSLRLSCAASGSIFGSYAMGWYRQAPGKERELVAVITSSGNTKYADSVKGRFTISRDNAKNTVYLQMNSLKPEDTAVYYCAARFITWGSQYSFRSMDYWGQGTQVTVSS,polyreactivity (PSR sort gate),high polyreactivity
QVQLVESGGGLVQAGGSLRLSCAASGNIFPYYTLGWYRKAPGKEREWVAAITIGGSTYYADSEKGRFTISRDNAKNTVYLQMNSLKPEDTAVYYCAARSRYYDTRFEYWGQGTQVTVSS,polyreactivity (PSR sort gate),low polyreactivity
QVQLVESGGGLVQAGGSLRISCAASGSIFGGYAMGWYRQAPGKERELVAAISSGGSTYYADSVKGRFTISRDNAKNTVYLQMNSLKPEDTAVYYCATSTYAYRRNSYYYTRPRFGYWGQGTQVTVSS,polyreactivity (PSR sort gate),high polyreactivity
QVQLVESGGGLVQAGGILRLICAASGSTFSTYAMGWYRPAPGKERELVAAIRFSGGTTYYADSVKGRFTISRDNAKNSVYLQMYCLKPEDTAVYYCAAVYISRNFFGRARGDYWGQGTEVTVSS,polyreactivity (PSR sort gate),low polyreactivity
QVQLVESGGGLVQAGGSLRLSCAASGSTFYPYFMGWYRQAPAKEREFVAAISKSGGSTYYADSVKGRFTISRDNAKNTVYLQMNSLKPEDTAVYYCNKKVGSYYRSYYYWGQGTQVTVSS,polyreactivity (PSR sort gate),high polyreactivity
QVQLVESGGGLVQAGGSLRLSCAASGSTLYVYAMGWYRQAPGKERELVAAITRGSRTSYADSVKGRFTISRDNAKNTVYLQMNSLKPEDTAVYYCNADTILWFLPPQKRDYWGQGTQVTVSS,polyreactivity (PSR sort gate),low polyreactivity
QVQLVESGGGLVQAGGSLRLSCAASGFTFFVYAMGWYRKAPGKERELVATINWSGASTYYADSVKGRFTISRDNAKNTVYLQMNSLKPEDTAVYYCDKDGHYPLVYLAFDYWGQGTQVTVSS,polyreactivity (PSR sort gate),low polyreactivity
QVHLVESGGGLVLAGGSLRLSCAASVRIYTRNVMGWYRQAPGKERELVAAISTSGGSTFYADSVKGRFTISRDNAKNTVYLQMNSLKPEDTAVYYCAKRRYGKLEYWGQGTQVTVSS,polyreactivity (PSR sort gate),high polyreactivity
QVHLVESGGGLVQAGGSLRLSCASTGFTFSRNTMGWYRQPPGKERELVARISASGGSTYYADSVKGRFTISRDNAKNTVYLQMNSLKPEDTAVYYCAAEGFYRSSPVRTYIGYDYWGQGSQVTVSS,polyreactivity (PSR sort gate),high polyreactivity
QVQLVESGGGLVQAGGSLRLSCAPSGSIFFPYAIGWYRQAPGKESELVAAISYSGTSTYYADSVKGRFTISRDNAKNTVYLQMNSLIPEDTAVYYCAAEVIGRYIEYYYWGQGTQVTVSS,polyreactivity (PSR sort gate),high polyreactivity
QGLLVQSGGGLVQAGGSLRLSCAASGFTFRFYAMLWYRQAPGNERELVAAISSTGSTNYADSVKARCTISRDNAKNTVYLQKNSLKPEDTAVYYCNTDYYNRYYDWLIWYYYWGQGTQVTVSS,polyreactivity (PSR sort gate),high polyreactivity
QDQLVESGGGLVQAGGSLRLICAASGLIFGFYAMGWYRQAPGKERELVAAINTGGITYYADSVKGRFTISRDNAKYTVYLQMNSLKPEDTAVYYCNKDSHISTAYDYWGQGTQVTVSS,polyreactivity (PSR sort gate),low polyreactivity
QVQLVESGGGLVQAGGSLRLSCAASGRIFIVNAMGWYRQATGKERELVAAISYRGGSTYYADSVKGRFTISRDNAKNTVYLQMNRLKPEDTAVYYCAADRYSYLGYPYEYEYWGQGTQVTVSS,polyreactivity (PSR sort gate),low polyreactivity
QVQLVESGGGLVQAGGSLRLSCAASGSTYYNAMGWYRQAPRKERELVAAIRFRSGSTYYADSVKGRFTISRDNAKITVYFQMNSLKPEDTAVYYCAADNKRSWRYAYNYWGQGTQVTVSS,polyreactivity (PSR sort gate),high polyreactivity
QLQLVESGGGLDQAGGSLRLRCASSARIFSGYAIGWYIKAPGKERELVAAITSRSGSTYYADSVKGRFTISRDNAKNSVYFQMNSLKPEDTAVYYCAAEYVRFYWYTSDYWGQGTQVTVSS,polyreactivity (PSR sort gate),low polyreactivity
QVQLVESGGGLVQAGGSLRLSCAASGITFGWNAMGWYRPAPGKERELVAAITEDGDSTYYADSVKGRFTISRDNAMNTVYLQMNSLKPEDTAGYYCAAEYYDVYTYVQYDSWGQGTQVTVSS,polyreactivity (PSR sort gate),high polyreactivity
QDQHVESGGGLVQAGGSLRLSCAASGIIFWWYDMGWFRQAPGKERELVAAISTGSRTNYADSVKGRFTISRDNAKNTVYLQMNSLKPEDTAVYYCAGEWVGFSGYYGSGYEMDYWGQGTQVTVSS,polyreactivity (PSR sort gate),low polyreactivity
QVQLVESGGGLVQAGGSLRLSCAASGSIFAKYAMGWYRQAPGKERELVAVITSRGGTYYADSVKGRFTISRDNAKKTVYLQMNSLKPEDTAVYYCAARGGGQPVAYDYWGQGTQVTVSS,polyreactivity (PSR sort gate),high polyreactivity
QVQLVESGGGLVQEGGSLRLRCAASGSTFIRYVMGWYRQAPGKERELVAGINSSGGSTNYADSVKGRFTISRDNAKNTVYLQMNSLKPVDTAVYYCNADLRSEYVYWGQGTQVTVSS,polyreactivity (PSR sort gate),low polyreactivity
QVQLVESGGGLVQAGGSLRLSCAASGRTFSVNAMGWSRQAPGKERELVAAITYSGGGTYYADSVKGRFTISRDNAKNPVYLQMNSLKPEDTAVYYCAAPVYTWYHRYDYWGQGTQVTVSS,polyreactivity (PSR sort gate),high polyreactivity
QVQLVESGGGLVQSGGSLRLSCAASGSTFDPNTMGSYRQAPGKERELVATITSVDSTNYADSVKGRFTISRDNAMNTVYLQMNSLIPEDTAVYYCNAAYGGVFFYAYDYWGQGTQVTVSS,polyreactivity (PSR sort gate),low polyreactivity
QVQLVESGGGLVEAGGSHRLSCAASGSTFNYYAMGWYRQAPGKERELVASISGGGSTSYADSVKGRFTISRDHAKNTVYLQMNSLNPEHTAVYYCAATPIGQHFPLDYWGPGTQVTVSS,polyreactivity (PSR sort gate),low polyreactivity
QVQLVESGGGLVQAGGSLRLSCAASGFIFKVNAMGCYRQAPGKERELVAAISRRGGTTYYADSVKGRFTISRDNAKNTVYFQLNSLKPEDTAVYYCYRARSYGVTDKVAILADDYWGQGTQVTVSS,polyreactivity (PSR sort gate),high polyreactivity
QVQLVESGVGLLQAGGSLRLSCADSGRIISGNAMVWYRQAPGKEREMVAAISSGGSTYYADSVKGRFTISRDNAMNTVYLQMNSLKPEATAVFYCNKRRGRKWPGNFSVVKLLMGSWGQGTQVTVSS,polyreactivity (PSR sort gate),low polyreactivity
QVQLVESAGGLVQAGGSLRLSCAASGSIFDDYAMGWYRQAPGKERELVAAISDSGGSTSYADSVKGRFTISRDNAKNTVYLQMNSLKPEDTAVYYCNADRDDDYDYWGQGTQVTLSS,polyreactivity (PSR sort gate),low polyreactivity
QFQLVESGGRLDQAGGSLRLSCAASSSIFDDYAMGWYRQAPGKERELVAAISWSGGSTYYADSVQGRFTISRDNPNHTVYLQMNSLKREDTAVYYCAAYAYDYLYGEYYWGQGTQVTVSS,polyreactivity (PSR sort gate),low polyreactivity
QVQLVESGGGLVQAGGSLRLSCAASGRIIGYYAMGWYRQAPGKERELVAGIDWSGGNTYYADSVKGRFTISRDNAKNTVYLQMNSLKPEDTAVYYCNTEGGRDTAWYDYWGQGTQVTVSS,polyreactivity (PSR sort gate),low polyreactivity
QVQLVESGGGLVQAGGSLRLSCAASGFIIRSYAMGWYRQAPGKERELLAAISSRGGSTYYADSVKGRFTISRDNANNTVYLQINSLKPEDTAVYYCAADWKSKRTDKYDSWGQGTQVTVSS,polyreactivity (PSR sort gate),high polyreactivity
QVQLVESGGGLVQAGGSLRLSCAASGSTFKVYAMGWYRQAPGKERELVAVISGGGRTNYADSVKGRFTISRDNAKNTVYLQMNSLNPEDTAVYYSAALGPYGSARRKYGYWGQGTQVTVSS,polyreactivity (PSR sort gate),high polyreactivity
QVQLVESGGGIVQAGGSLRLSCAASGSIFTGYAMGWYRQAPGKERQLVAAISWRGGGTYYADSVKGRFTISRDNAKNTVYLQMNSLKPEDTAVYYCAAVTKFGQYAPGSKGYGYWGQGTQVTVSS,polyreactivity (PSR sort gate),low polyreactivity
QVQLVESGGGLVQAGGSLRLSCAASGLILYWYAMGWYRQAPGKERELVAAISISGGSTYYADSVKGRFTISRDNAKNTVYLQMNSLKPEDTAVYYCAAVYFYSWEGDGDYWGQGTQVTVSS,polyreactivity (PSR sort gate),low polyreactivity
QVQLVESGGGLVQAGGCLRLSCAASGSSFGYNGMGWYSQAPGKEREVVAAISSGGNTYYGDSVNGRFTISRDNAKNTVYLQMNSLKPEDTAVYYCNADYVASGYDFDEGYWGQGTQVTVST,polyreactivity (PSR sort gate),low polyreactivity
QVQLVESGGGLVQAGGSLRLSCAASGSTFIFNAMGWYRQAPGKERELVAGISSGSPYYADSVKGRFTISRDNAKNTVYLQMNSLIPEDTAVYYCATKLRRWRFYAAYDYWGQGTQVTVSS,polyreactivity (PSR sort gate),high polyreactivity
QVQLVESGGGLVQAGGSLRLSCAASGSIFYFYAMGWYRQAPGKERELVAAISSRGTSTYYADSVKGRFTISRDNAKNTVYLQMNSLKPEDTAVYYCAAQIYVYYQRRPPYDYWGQGTQVTVSS,polyreactivity (PSR sort gate),high polyreactivity
QVQLVESGGRLVQAGGRLRLSCAASGRTFPIYVMGWYRQAQGKERELVATIDSDGTTNYADSVKGRFTISRDNAKNTVSLQMNSLKPEDTAVYYCAADSGWWEYCEDYWGQGTQVTVSS,polyreactivity (PSR sort gate),low polyreactivity
QVQLVESGRGLVQAGGSLRLSCADSGRTFGYYGMGWYRQAPGKEREFVAAITRSGGSTYYADSVKGRFTISRDHAKNTVYLQMNSLKPEDTAVYYCAAAHLFTRSRPYDYWGQGTQVTVSS,polyreactivity (PSR sort gate),high polyreactivity
QVQLVESGGGLVQAGGSLRLSCAASGFTFIRYAMGWYSQAAGKDRELVARITSSGSSTYADSVKGRFTISRDKAKNTVYLQMNSLKPEDTAVYYCAAKVHTRRRFDYWGQGTQVTVSS,polyreactivity (PSR sort gate),high polyreactivity
QVQLVESGGGLVQAGGSLRLTCAASGSIFRVYAMGWYRQAPGKERELVAVISIAGRTNYADSVKGRFTISRDNAKNTVYLQMNSLKAEDTAVYYCNAGGVGVATGYDYWGQGTQVTVSS,polyreactivity (PSR sort gate),low polyreactivity
QVQLVESGGGLVQAGGSLRLSFAASGFTISYYAMGWYRQAPGKERELVAAISQSGGSTYYADSVKGRFTISRDNAKNTVYLQMNSLKPEDTAVYYCAADTYYNLGNYWGQGTQVTVSS,polyreactivity (PSR sort gate),high polyreactivity
QVQLVESGGGLVQAGGSLPLSSAASGRTFYPNAMGWYRQAPGNEREFVARISDSGGSTYYADSVKGRFTISRDNAKNTVYLQMNSLKPEDTAVYYCAADYGDPRVKEYDYWGQGTQVTVSS,polyreactivity (PSR sort gate),low polyreactivity
QVQLVESGGGLVHAGGSLRLSCAASGSIFVVYTMGWYRQAPGQERELVAAITQNGGSSTYYADSVKGRFTISRDNAKNTVYLQMNSLKPEDTAVYYCNKDILSPVVRIFKYGYDMDYWGQGTQVTVSS,polyreactivity (PSR sort gate),low polyreactivity
QVQLVESGGRLVQAGGSLRLTCAASGSTFTTYAMGWSRQAPGKERELVAAITSGSSTNYADSVKGRFTISRDNAKNTVYLQMNSLKPEDTAVYYCAVDREWPGYYYAISKMYYWGQGTQVTVSS,polyreactivity (PSR sort gate),low polyreactivity
QVQLVESGGGLVQAGGSLRLSCAASGINFFGYAMGWYRQAPGKERELVAGISRSTGRTYYADSVKGRFTISRDNAKNTVYLQMNSLKQEDTSVYYCAARATRSLSRSMDYWGQGTQVTVSS,polyreactivity (PSR sort gate),high polyreactivity
